In patent US20230103583A1 (NORTHWESTERN UNIVERSITY, published 2023):

Target: Tie2 receptor on HUVEC (human, UniProt Q02763 23-1124)
Test: cell-based or functional assay

Chain of Tie2 receptor on HUVEC (Q02763 23-1124): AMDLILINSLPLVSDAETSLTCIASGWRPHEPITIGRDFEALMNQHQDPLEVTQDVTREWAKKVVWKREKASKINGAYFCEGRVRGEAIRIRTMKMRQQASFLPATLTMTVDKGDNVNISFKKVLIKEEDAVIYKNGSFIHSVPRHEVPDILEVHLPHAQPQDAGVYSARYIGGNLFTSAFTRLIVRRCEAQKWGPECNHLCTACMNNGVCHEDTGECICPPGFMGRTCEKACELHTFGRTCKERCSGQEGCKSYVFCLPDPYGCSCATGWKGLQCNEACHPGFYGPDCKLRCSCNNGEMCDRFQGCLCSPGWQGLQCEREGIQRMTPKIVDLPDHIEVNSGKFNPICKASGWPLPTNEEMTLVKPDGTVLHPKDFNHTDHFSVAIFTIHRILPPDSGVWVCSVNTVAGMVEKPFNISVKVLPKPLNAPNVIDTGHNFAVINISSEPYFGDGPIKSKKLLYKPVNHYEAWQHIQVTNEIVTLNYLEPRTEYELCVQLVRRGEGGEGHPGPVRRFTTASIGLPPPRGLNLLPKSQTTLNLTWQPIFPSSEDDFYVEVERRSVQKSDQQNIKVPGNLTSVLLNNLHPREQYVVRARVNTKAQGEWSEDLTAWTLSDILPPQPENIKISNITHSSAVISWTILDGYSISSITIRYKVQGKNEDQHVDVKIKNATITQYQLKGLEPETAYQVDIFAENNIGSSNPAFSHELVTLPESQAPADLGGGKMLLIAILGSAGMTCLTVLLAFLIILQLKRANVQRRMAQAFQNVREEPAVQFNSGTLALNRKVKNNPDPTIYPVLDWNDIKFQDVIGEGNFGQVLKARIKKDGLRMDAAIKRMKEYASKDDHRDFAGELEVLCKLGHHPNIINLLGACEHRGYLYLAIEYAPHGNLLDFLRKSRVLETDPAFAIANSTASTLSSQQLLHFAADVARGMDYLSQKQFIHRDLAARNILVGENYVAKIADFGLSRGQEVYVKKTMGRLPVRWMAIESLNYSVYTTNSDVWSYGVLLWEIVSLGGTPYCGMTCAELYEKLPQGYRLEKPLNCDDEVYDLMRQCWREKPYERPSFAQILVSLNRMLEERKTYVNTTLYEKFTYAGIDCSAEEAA

B1: ANG1-C4BP (ligand)
chain: KPFRDCADVYQAGFNKSGIYTIYINNMPEPKKVFCNMDVNGGGWTVIQHREDGSLDFQRGWKEYKMGFGNPSGEYWLGNEFIFAITSQRQYMLRIELMDWEGNRAYSQYDRFHIGNEKQNYRLYLKGHTGTAGKQSSLILHGADFSTKDADNDNCMCKCALMLTGGWWFDACGPSNLNGMFYTAGQNHGKLNGIKWHYFKGPSYSLRSTTMMIRPLDFGGGGSETPEGCEQVLTGKRLMQCLPNPEDVKMALEVYKLSLEIEQLELQRDSARQSTLDKELHHHHHH
- phospho-AKT (pAKT) EC50 in HUVEC treated for 20 minutes: 87 ng/mL
